Data: patent US20160102129A1 (Novo Nordisk, published 2016)
*1 amine or outer side, *2 acyl side, *3 side chain or, on linkers, in order; H or OH if unused. Where no end group is shown, it is not given here. Side-chain parts run from the residue outwards. [ ]: non-standard residue; d: D form. The star is where a group is joined. C18 diacid = O=C(O)CCCCCCCCCCCCCCCCC(=O)*; γGlu = O=C(O)[C@H](CCC(=O)[*:2])N[*:1]; Desaminohistidyl = O=C(CCc1c[nH]cn1)*; Ac4c = NC1(C(=O)O)CCC1; AEEA = NCCOCCOCC(=O)O; Aib = CC(C)(N)C(=O)O

B1: N^ε34-[2-[2-[2-[[2-[2-[2-[[(4S)-4-carboxy-4-[[(4S)-4-carboxy-4-[[(4S)-4-carboxy-4-(17-carboxyheptadecanoylamino)butanoyl]amino]butanoyl]amino]butanoyl]amino]eth … (peptide)
peptide: [Desaminohistidyl][Aib]HGTFTSDVSKYLEEQAAREFIAWLLK([Ado-Ado-γGlu-γGlu-γGlu-C18 diacid])T
notes: Named as peptide, not peptide amide (C-terminal acid)
B2: N^ε34-[2-[[(2S)-2-[[(2S)-4-carboxy-2-[[2-[[(2S)-2-[[(4S)-4-carboxy-4-[[(4S)-4-carboxy-4-(17-carboxyheptadecanoylamino)butanoyl]amino]butanoyl]amino]-3-hydroxypr … (peptide)
peptide: [Desaminohistidyl][Aib]HGTFTSDVSKYLEEQAAREFIAWLLK([Gly-Ser-Glu-Gly-Ser-γGlu-γGlu-C18 diacid])T
notes: as for B1
B3: N^ε23-[2-[2-[2-[[2-[2-[2-[[(4S)-4-carboxy-4-(17-carboxyheptadecanoylamino)butanoyl]amino]ethoxy]ethoxy]acetyl]amino]ethoxy]ethoxy]acetyl]-[Imp7,Aib8,His9,Lys18, … (peptide)
peptide: [Desaminohistidyl][Aib]HGTFTSDVSKYLEGK([AEEA-AEEA-γGlu-C18 diacid])AAREFIAWLLKT-NH2
SMILES: CC[C@H](C)[C@H](NC(=O)[C@H](Cc1ccccc1)NC(=O)[C@H](CCC(=O)O)NC(=O)[C@H](CCCNC(=N)N)NC(=O)[C@H](C)NC(=O)[C@H](C)NC(=O)[C@H](CCCCNC(=O)COCCOCCNC(=O)COCCOCCNC(=O)CC[C@H](NC(=O)CCCCCCCCCCCCCCCCC(=O)O)C(=O)O)NC(=O)CNC(=O)[C@H](CCC(=O)O)NC(=O)[C@H](CC(C)C)NC(=O)[C@H](Cc1ccc(O)cc1)NC(=O)[C@H](CCCCN)NC(=O)[C@H](CO)NC(=O)[C@@H](NC(=O)[C@H](CC(=O)O)NC(=O)[C@H](CO)NC(=O)[C@@H](NC(=O)[C@H](Cc1ccccc1)NC(=O)[C@@H](NC(=O)CNC(=O)[C@H](Cc1c[nH]cn1)NC(=O)C(C)(C)NC(=O)CCc1c[nH]cn1)[C@@H](C)O)[C@@H](C)O)C(C)C)C(=O)N[C@@H](C)C(=O)N[C@@H](Cc1c[nH]c2ccccc12)C(=O)N[C@@H](CC(C)C)C(=O)N[C@@H](CC(C)C)C(=O)N[C@@H](CCCCN)C(=O)N[C@H](C(N)=O)[C@@H](C)O
B4: N^ε23-[2-[2-[2-[[2-[2-[2-[[(4S)-4-carboxy-4-(17-carboxyheptadecanoylamino)butanoyl]amino]ethoxy]ethoxy]acetyl]amino]ethoxy]ethoxy]acetyl]-[Imp7,Aib8,His9,Tyr16, … (peptide)
peptide: [Desaminohistidyl][Aib]HGTFTSDYSKYLEGK([AEEA-AEEA-γGlu-C18 diacid])AAREFIAWLLKT-NH2
SMILES: CC[C@H](C)[C@H](NC(=O)[C@H](Cc1ccccc1)NC(=O)[C@H](CCC(=O)O)NC(=O)[C@H](CCCNC(=N)N)NC(=O)[C@H](C)NC(=O)[C@H](C)NC(=O)[C@H](CCCCNC(=O)COCCOCCNC(=O)COCCOCCNC(=O)CC[C@H](NC(=O)CCCCCCCCCCCCCCCCC(=O)O)C(=O)O)NC(=O)CNC(=O)[C@H](CCC(=O)O)NC(=O)[C@H](CC(C)C)NC(=O)[C@H](Cc1ccc(O)cc1)NC(=O)[C@H](CCCCN)NC(=O)[C@H](CO)NC(=O)[C@H](Cc1ccc(O)cc1)NC(=O)[C@H](CC(=O)O)NC(=O)[C@H](CO)NC(=O)[C@@H](NC(=O)[C@H](Cc1ccccc1)NC(=O)[C@@H](NC(=O)CNC(=O)[C@H](Cc1c[nH]cn1)NC(=O)C(C)(C)NC(=O)CCc1c[nH]cn1)[C@@H](C)O)[C@@H](C)O)C(=O)N[C@@H](C)C(=O)N[C@@H](Cc1c[nH]c2ccccc12)C(=O)N[C@@H](CC(C)C)C(=O)N[C@@H](CC(C)C)C(=O)N[C@@H](CCCCN)C(=O)N[C@H](C(N)=O)[C@@H](C)O
B5: N^ε22-[(4S)-4-carboxy-4-[[(4S)-4-carboxy-4-[[2-[2-[2-[[2-[2-[2-[[(4S)-4-carboxy-4-(17-carboxyheptadecanoylamino)butanoyl]amino]ethoxy]ethoxy]acetyl]amino]ethoxy … (peptide)
peptide: [Desaminohistidyl][Ac4c]HGTFTSDVSKYLEK([γGlu-γGlu-AEEA-AEEA-γGlu-C18 diacid])RAAREFIAWLLKT-NH2
SMILES: CC[C@H](C)[C@H](NC(=O)[C@H](Cc1ccccc1)NC(=O)[C@H](CCC(=O)O)NC(=O)[C@H](CCCNC(=N)N)NC(=O)[C@H](C)NC(=O)[C@H](C)NC(=O)[C@H](CCCNC(=N)N)NC(=O)[C@H](CCCCNC(=O)CC[C@H](NC(=O)CC[C@H](NC(=O)COCCOCCNC(=O)COCCOCCNC(=O)CC[C@H](NC(=O)CCCCCCCCCCCCCCCCC(=O)O)C(=O)O)C(=O)O)C(=O)O)NC(=O)[C@H](CCC(=O)O)NC(=O)[C@H](CC(C)C)NC(=O)[C@H](Cc1ccc(O)cc1)NC(=O)[C@H](CCCCN)NC(=O)[C@H](CO)NC(=O)[C@@H](NC(=O)[C@H](CC(=O)O)NC(=O)[C@H](CO)NC(=O)[C@@H](NC(=O)[C@H](Cc1ccccc1)NC(=O)[C@@H](NC(=O)CNC(=O)[C@H](Cc1c[nH]cn1)NC(=O)C1(NC(=O)CCc2c[nH]cn2)CCC1)[C@@H](C)O)[C@@H](C)O)C(C)C)C(=O)N[C@@H](C)C(=O)N[C@@H](Cc1c[nH]c2ccccc12)C(=O)N[C@@H](CC(C)C)C(=O)N[C@@H](CC(C)C)C(=O)N[C@@H](CCCCN)C(=O)N[C@H](C(N)=O)[C@@H](C)O
B6: N^ε22-[(4S)-4-carboxy-4-[[(4S)-4-carboxy-4-[[2-[2-[2-[[2-[2-[2-[[(4S)-4-carboxy-4-(17-carboxyheptadecanoylamino)butanoyl]amino]ethoxy]ethoxy]acetyl]amino]ethoxy … (peptide)
peptide: [Desaminohistidyl][Ac4c]HGTFTSDVSKYLEK([γGlu-γGlu-AEEA-AEEA-γGlu-C18 diacid])QAAREFIAWLLKT-NH2
SMILES: CC[C@H](C)[C@H](NC(=O)[C@H](Cc1ccccc1)NC(=O)[C@H](CCC(=O)O)NC(=O)[C@H](CCCNC(=N)N)NC(=O)[C@H](C)NC(=O)[C@H](C)NC(=O)[C@H](CCC(N)=O)NC(=O)[C@H](CCCCNC(=O)CC[C@H](NC(=O)CC[C@H](NC(=O)COCCOCCNC(=O)COCCOCCNC(=O)CC[C@H](NC(=O)CCCCCCCCCCCCCCCCC(=O)O)C(=O)O)C(=O)O)C(=O)O)NC(=O)[C@H](CCC(=O)O)NC(=O)[C@H](CC(C)C)NC(=O)[C@H](Cc1ccc(O)cc1)NC(=O)[C@H](CCCCN)NC(=O)[C@H](CO)NC(=O)[C@@H](NC(=O)[C@H](CC(=O)O)NC(=O)[C@H](CO)NC(=O)[C@@H](NC(=O)[C@H](Cc1ccccc1)NC(=O)[C@@H](NC(=O)CNC(=O)[C@H](Cc1c[nH]cn1)NC(=O)C1(NC(=O)CCc2c[nH]cn2)CCC1)[C@@H](C)O)[C@@H](C)O)C(C)C)C(=O)N[C@@H](C)C(=O)N[C@@H](Cc1c[nH]c2ccccc12)C(=O)N[C@@H](CC(C)C)C(=O)N[C@@H](CC(C)C)C(=O)N[C@@H](CCCCN)C(=O)N[C@H](C(N)=O)[C@@H](C)O

How the values were obtained:
human GLP-1 receptor [1] = molecular target: T1, human GLP-1 receptor (human, UniProt P43220 24-463); experiment: SPA displacement of [125I]GLP-1(7-36)NH2 from hGLP-1R BHK membranes
T1 construct: whole, on cells; reporter assay on whole cells
Description: The GLP-1 receptor binding of each derivatives were determined with competitive binding, displacing [¹²⁵I]GLP-1 bound to GLP-1 receptors expressed in cell membranes associated with wheat germ agglutinin (WGA) scintillation proximity assay (SPA) beads. Each derivative was added in a series of concentrations to isolated membranes comprising the human GLP-1 receptor and displacement of the labelled radioligand was monitored. The receptor binding was reported as the concentration at which half of the labelled ligand is displaced from the receptor, the IC⁵⁰ value.
1. For the receptor binding assay 50 μl of the assay buffer was added to each well of an assay plate. [0588] 2. Test compounds were serially diluted to give the following concentrations: 8×10EE-7 M, 8×10EE-8 M, 8×10EE-9 M, 8×10EE-10 M, 8×10EE-11 M, 8×10EE-12 M and 8×10EE-13 M. Twenty-five μl were added to appropriate wells in the assay plate. [0589] 3. Cell membrane aliquots were thawed and diluted to their working concentration. Fifty μl were added to each well in the assay plate. [0590] 4. WGA SPA beads were suspended in assay buffer at 20 mg/ml. The suspension was diluted to 10 mg/ml in assay buffer just prior to addition to the assay plate. Fifty μl were added to each well in the assay plate. [0591] 5. […] A 25 μl aliquot was reserved for measuring total counts/well. [0592] 6. The assay plate was incubated for 2 h at 30° C. [0593] 7. The assay plate was centrifuged for 10 min. [0594] 8. The assay plate was read in a Perkin Elmer TopCount NXT instrument.

human glucagon receptor [2] = molecular target: T2, human glucagon receptor (human, UniProt P47871 26-477); experiment: SPA displacement of [125I]-glucagon from human glucagon receptor BHK membranes
T2 construct: whole, on cells; reporter assay on whole cells
T2 sequence (P47871 26-477): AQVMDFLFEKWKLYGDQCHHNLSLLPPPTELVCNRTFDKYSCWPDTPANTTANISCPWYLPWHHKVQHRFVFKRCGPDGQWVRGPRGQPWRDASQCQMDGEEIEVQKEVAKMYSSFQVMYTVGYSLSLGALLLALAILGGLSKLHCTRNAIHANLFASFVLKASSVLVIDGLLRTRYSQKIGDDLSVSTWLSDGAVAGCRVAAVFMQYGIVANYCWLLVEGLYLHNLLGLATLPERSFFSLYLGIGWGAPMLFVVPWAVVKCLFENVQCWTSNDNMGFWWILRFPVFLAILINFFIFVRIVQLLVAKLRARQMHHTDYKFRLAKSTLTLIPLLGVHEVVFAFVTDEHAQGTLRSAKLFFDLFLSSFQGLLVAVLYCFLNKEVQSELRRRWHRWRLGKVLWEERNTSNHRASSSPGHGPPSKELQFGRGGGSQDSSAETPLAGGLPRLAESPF
Description: 1. For the receptor binding assay 50 μl of the assay buffer was added to each well of an assay plate. [0603] 2. Test compounds were serially diluted to give the following concentrations: 8×10EE-7 M, 8×10EE-8 M, 8×10EE-9 M, 8×10EE-10 M, 8×10EE-11 M, 8×10EE-12 M and 8×10EE-13 M. Twenty-five μl were added to appropriate wells in the assay plate. [0604] 3. Cell membrane aliquots were thawed and diluted to their working concentration. Fifty μl were added to each well in the assay plate. [0605] 4. WGA SPA beads were suspended in assay buffer at 20 mg/ml. The suspension was diluted to 10 mg/ml in assay buffer just prior to addition to the assay plate. Fifty μl were added to each well in the assay plate. [0606] 5. […] A 25 μl aliquot was reserved for measuring total counts/well. […] 6. The assay plate was incubated for 2 h at 25° C. [0608] 7. The assay plate was centrifuged for 10 min at 1500 rpm. [0609] 8. The assay plate was read in a Perkin Elmer TopCount NXT instrument.

human GLP-1 receptor [3] = molecular target: T1, human GLP-1 receptor; experiment: cell-based or functional assay
human glucagon receptor [4] = molecular target: T2, human glucagon receptor; experiment: cell-based or functional assay

| Binder | IC50 (human GLP-1 receptor [1]) [nM] | IC50 (human glucagon receptor [2]) [nM] | EC50 GLP-1R [pM], CRE luciferase reporter gene assay (human GLP-1 receptor [3]) [pM] | EC50 GlucagonR [pM], CRE luciferase reporter gene assay (human glucagon receptor [4]) [pM] |
| --- | --- | --- | --- | --- |
| B1 | 4.6 | 28.1 |  |  |
| [Desaminohistidyl][Aib]HGTFTSDVSKYLEK([γGlu-γGlu-AEEA-AEEA-γGlu-C18 diacid])QAAREFIAWLLKGGG | 0.5 | 56 |  |  |
| [Desaminohistidyl][Aib]HGTFTSDYSKYLEEQAAREFIAWLLKGK([Gly-Ser-Glu-Gly-Ser-γGlu-γGlu-C18 diacid])G | 3.2 | 31.1 |  |  |
| [Desaminohistidyl]AHGTFTSDVSRYLEGRAAREFIAWLLK([Ado-Ado-γGlu-γGlu-γGlu-C18 diacid]) | 19 | 43.4 |  |  |
| B2 | 6.9 | 18.8 |  |  |
| [Desaminohistidyl][Aib]HGTFTSDVSKYLEEQAAREFIAWLLK([Gly-Ser-Glu-Gly-Ser-γGlu-γGlu-C18 diacid])T-NH2 | 0.4 | 3.2 | 5 | 40.7 |
| B3 | 1.9 | 80.2 |  |  |
| B4 | 13.1 | 51 |  |  |
| B5 | 0.2 | 14.1 |  |  |
| [Desaminohistidyl][Aib]HGTFTSDLSKYLEEQAAREFIAWLLK([Ado-Ado-γGlu-γGlu-C18 diacid])T-NH2 | 1.1 | 5.1 | 14.7 | 54.2 |
| B6 | 0.2 | 17.9 |  |  |
| [Desaminohistidyl]AHGTFTSDVSKYLEGRAAREFIAWLLK([Ado-Ado-γGlu-γGlu-γGlu-C18 diacid])GGG | 0.9 | 69.5 |  |  |
